{"source": "paper PMC11293989", "about": "(Molecular cancer therapeutics, 2024)", "assay_in_all_cases": "SPR", "key": {"[1]": {"biological_target": "NGM438, humanized IgG1 effector-less monoclonal antibody against LAIR1"}, "[2]": {"biological_target": "LAIR1 from mouse (Mus musculus, UniProt Q8BG84)", "sequence (Q8BG84 22-263)": "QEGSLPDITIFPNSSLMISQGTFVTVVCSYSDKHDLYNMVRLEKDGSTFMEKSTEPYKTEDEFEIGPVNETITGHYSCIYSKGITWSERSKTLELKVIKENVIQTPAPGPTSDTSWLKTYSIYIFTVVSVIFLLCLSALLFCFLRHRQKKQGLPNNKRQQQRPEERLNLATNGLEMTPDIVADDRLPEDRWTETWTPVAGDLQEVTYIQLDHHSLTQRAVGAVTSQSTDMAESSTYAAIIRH"}, "[3]": {"biological_target": "human LAIR2 (Homo sapiens, UniProt Q6ISS4)", "sequence (Q6ISS4 22-152)": "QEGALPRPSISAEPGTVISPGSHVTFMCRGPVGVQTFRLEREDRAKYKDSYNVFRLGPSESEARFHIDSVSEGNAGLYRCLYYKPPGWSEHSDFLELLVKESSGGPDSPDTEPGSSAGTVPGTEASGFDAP"}, "[4]": {"biological_target": "LAIR1 from rat (Rattus norvegicus, UniProt P0C1X9)", "sequence (P0C1X9 22-263)": "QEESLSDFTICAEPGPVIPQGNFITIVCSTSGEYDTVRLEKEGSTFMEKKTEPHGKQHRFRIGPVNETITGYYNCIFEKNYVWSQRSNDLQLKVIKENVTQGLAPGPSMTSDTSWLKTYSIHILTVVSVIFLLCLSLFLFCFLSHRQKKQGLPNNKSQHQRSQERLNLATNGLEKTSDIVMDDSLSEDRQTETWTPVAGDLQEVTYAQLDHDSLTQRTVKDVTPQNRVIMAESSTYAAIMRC"}, "[5]": {"biological_target": "recombinant human LAIR1-his (Homo sapiens, UniProt Q6GTX8)", "sequence (Q6GTX8 22-287)": "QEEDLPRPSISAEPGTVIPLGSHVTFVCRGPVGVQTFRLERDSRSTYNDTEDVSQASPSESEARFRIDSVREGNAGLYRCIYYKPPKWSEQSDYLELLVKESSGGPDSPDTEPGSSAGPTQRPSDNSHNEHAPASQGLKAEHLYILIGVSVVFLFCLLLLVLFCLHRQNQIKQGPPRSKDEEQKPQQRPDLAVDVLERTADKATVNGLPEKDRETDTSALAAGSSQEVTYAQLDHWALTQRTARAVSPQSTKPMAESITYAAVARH"}}}
{"molecule": "recombinant cynomolgus monkey LAIR1-his (receptor)", "values": [{"measurement": "Kd", "setting": "[1]", "value": 4.28, "unit": "nM"}]}
{"molecule": "NGM438, humanized IgG1 effector-less monoclonal antibody against LAIR1 (antibody, V domains shown) VH: EVQLVESGGGLVQPGGSLRLSCAASGFTFNINAMNWVRQAPGKGLEWVARIRTKNYNYATFYADSVKDRFTISRDDSKNSLYLQMNSLKTEDTAVYYCVRDRAGFFAYWGQGTTVTVSS VL: DIQMTQSPSSLSASVGDRVTITCLASQTIGTWLGWYQQKPGKAPKLLIYAATSLAEGVPSRFSGSGSGTDFTLTISSLQPEDFATYYCQQLYSTPLTFGGGTKVEIK", "values": [{"measurement": "binding result", "setting": "[2]", "value": "no binding"}, {"measurement": "binding result", "setting": "[3]", "value": "no binding"}, {"measurement": "binding result", "setting": "[4]", "value": "no binding"}, {"measurement": "Kd", "setting": "[5]", "value": "0.26 ± 0.03", "unit": "nM"}]}
